{
  "source": "patent US8163697B2",
  "about": "“Selective R-cadherin antagonists and methods” (The Scripps Research Institute, priority 2003, dated 2012)",
  "key": {"[1]": {"molecular_target": "T1, N-cadherin (Mus musculus, UniProt P15116)", "T1 construct": "expressed in transfected cells", "T1 sequence (P15116 160-906)": "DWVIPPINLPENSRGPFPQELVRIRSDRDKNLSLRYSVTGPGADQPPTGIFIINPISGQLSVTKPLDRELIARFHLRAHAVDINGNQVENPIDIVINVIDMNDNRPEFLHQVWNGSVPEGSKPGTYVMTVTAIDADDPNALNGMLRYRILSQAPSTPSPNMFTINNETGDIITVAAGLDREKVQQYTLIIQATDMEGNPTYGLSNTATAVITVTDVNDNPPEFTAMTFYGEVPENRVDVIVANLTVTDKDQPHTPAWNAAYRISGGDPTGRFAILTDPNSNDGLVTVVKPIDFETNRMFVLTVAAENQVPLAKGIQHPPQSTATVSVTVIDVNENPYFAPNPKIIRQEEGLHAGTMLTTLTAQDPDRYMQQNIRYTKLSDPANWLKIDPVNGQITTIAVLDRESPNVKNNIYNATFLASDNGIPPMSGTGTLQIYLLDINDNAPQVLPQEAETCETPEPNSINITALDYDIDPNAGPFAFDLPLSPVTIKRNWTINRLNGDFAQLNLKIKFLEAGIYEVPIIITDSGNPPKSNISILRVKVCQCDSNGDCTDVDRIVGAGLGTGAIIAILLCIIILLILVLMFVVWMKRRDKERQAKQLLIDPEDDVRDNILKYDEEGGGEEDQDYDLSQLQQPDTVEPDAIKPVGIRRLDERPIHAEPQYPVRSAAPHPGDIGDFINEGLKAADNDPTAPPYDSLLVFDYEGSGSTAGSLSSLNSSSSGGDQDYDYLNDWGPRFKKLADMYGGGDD", "assay": "Aggregation assay, N-cadherin transfected L-cells", "assay_type": "cell-based", "details": "N-cadherin expressing L-cells; for IC50: 2 hours incubation, 5 mM CaCl2, read-out: IC50, inhibition of N-cadherin mediated aggregation", "source_text": "(§1) Mouse R-cadherin and N-cadherin plasmids were generous gifts from Dr. Masatoshi Takeichi (Kyoto University, Japan). The plasmids were sub-cloned into pDsRed2 N1 vectors (Clontech) to encode for fusion proteins with Red Fluorescent Protein (RFP) attached to the C-terminal end of the cadherin molecules. L-cells (mouse fibroblast L929 cells, ATCC #CRL-2148) were stably transfected with either R or N-cadherin pDsRed2 N1 using the Calcium Phosphate Transfection System (Life Technologies) according to the manufacturer's protocol. After screening by growth in media supplemented with Geneticin (700 μg/mL G418 Geneticin, Gibco BRL), positive clones were selected. Cells were examined for expression of RFP, and were tested for cadherin expression by immunoblotting and immunofluorescence staining. FIG. 6 illustrates the aggregation of L-cells expressing R and N-cadherins.\n(§2) L-Cells were grown to near confluency followed by trypsinization with 0.01% trypsin+5 mM CaCl2 and no EDTA (TC) or 0.01% trypsin with 0.1 mM EDTA and no calcium (TE). The cells were collected and washed, followed by resuspension in Hanks buffer solution (HBSS)+1% BSA with (TC) or without (TE) 5 mM CaCl2. Cells were incubated at 37° C. in 0.5 mL solution at 2×10^5 cells per well of a 24 well plate with rocking at about 60-70 rpm with varying peptide concentrations. All assays were performed in triplicate. The extent of cellular aggregation was represented by the ratio of the total particle number after 2 hours of incubation (N2hr) to the initial particle number (N0). Particles were counted on a hemocytometer using the sum of 8 separate 20 μL counts/well, before (N0) and after (Nt) incubation. The results are illustrated in FIG. 8.\nMouse fibroblast cells (lineage L929), commonly referred to as L-cells, were chosen because they are known to contain no endogenous cadherin expression. R-cadherin stable transfectants were created and used to test the effects of the designed peptides on R-cadherin mediated aggregation. N-cadherin stable transfectants were also created and used to evaluate the peptides for cadherin selectivity, based on their effects on N-cadherin mediated aggregation. Immunoblot analysis detected high levels of R-cadherin and no N-cadherin expression in R-cadherin clone 8 (R-cad8), while high levels of N-cadherin expression and no R-cadherin expression was found in N-cadherin clone 3 (N-cad3), as shown in FIG. 7. Immunofluorescence confirmed the expression of the appropriate cadherin in these chosen clones. When tested in the aggregation assay, the morphology of the transfected cell lines was altered as a result of cadherin transfection. […]"}, "[2]": {"molecular_target": "T2, R-cadherin (Mus musculus, UniProt P39038)", "T2 construct": "expressed in transfected cells", "T2 sequence (P39038 167-913)": "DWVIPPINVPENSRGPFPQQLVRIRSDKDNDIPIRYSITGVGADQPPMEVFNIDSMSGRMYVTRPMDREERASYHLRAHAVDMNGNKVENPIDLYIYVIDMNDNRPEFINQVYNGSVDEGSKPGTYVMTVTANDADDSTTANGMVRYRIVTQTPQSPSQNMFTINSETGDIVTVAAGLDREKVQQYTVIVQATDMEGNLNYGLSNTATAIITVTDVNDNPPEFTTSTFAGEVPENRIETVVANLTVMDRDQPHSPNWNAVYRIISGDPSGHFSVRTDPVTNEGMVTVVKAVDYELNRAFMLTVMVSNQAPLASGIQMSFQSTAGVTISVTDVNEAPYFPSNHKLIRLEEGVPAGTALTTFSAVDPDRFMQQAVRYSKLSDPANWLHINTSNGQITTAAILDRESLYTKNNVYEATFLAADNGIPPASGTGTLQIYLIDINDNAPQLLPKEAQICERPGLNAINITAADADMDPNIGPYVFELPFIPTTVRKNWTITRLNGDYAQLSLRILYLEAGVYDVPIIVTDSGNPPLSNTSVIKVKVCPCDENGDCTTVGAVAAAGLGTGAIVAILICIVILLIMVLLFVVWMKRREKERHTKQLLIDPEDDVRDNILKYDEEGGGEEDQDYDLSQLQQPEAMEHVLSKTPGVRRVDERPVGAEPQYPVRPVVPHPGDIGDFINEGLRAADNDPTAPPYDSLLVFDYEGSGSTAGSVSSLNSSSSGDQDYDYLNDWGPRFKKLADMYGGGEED", "assay": "Aggregation assay, R-cadherin transfected L-cells", "assay_type": "cell-based", "details": "R-cadherin expressing L-cells", "source_text": "as §1\nas §2, with “The results are illustrated in FIG. 8.” left out\nMouse fibroblast cells (lineage L929), commonly referred to as L-cells, were chosen because they are known to contain no endogenous cadherin expression. […] Immunoblot analysis detected high levels of R-cadherin and no N-cadherin expression in R-cadherin clone 8 (R-cad8), while high levels of N-cadherin expression and no R-cadherin expression was found in N-cadherin clone 3 (N-cad3), as shown in FIG. 7. […]"}},
  "note": "Where a SMILES comes first, the peptide text is derived from it. Bridges are numbered along the chain shown (N, C = ends). Where no end group is shown, it is not given here.",
  "data": [
    {"compound": "CC(=O)N[C@H]1CSSC[C@@H](C(N)=O)NC(=O)[C@H](C(C)C)NC(=O)[C@H](C)NC(=O)[C@H](Cc2c[nH]cn2)NC1=O", "note": "[cyclic HAV, CHAVC]", "values": [
      {"measurement": "IC50", "setting": "[1]", "result": "150 to 200", "unit": "µM"},
      {"measurement": "IC50", "setting": "[2]; 2 hours incubation, 5 mM CaCl2, read-out: IC50, inhibition of R-cadherin mediated aggregation", "result": "150 to 200", "unit": "µM"}
    ]},
    {"compound": "cyclic CSDIC (disulfide 1-5; also: peptides said to be amide-blocked at N-terminus and acetylated at C-terminus (as worded)) [cyclic SDI, control cyclic peptide CSDIC]", "values": [
      {"measurement": "effect on N-cadherin mediated aggregation", "setting": "[1]", "result": "little effect"},
      {"measurement": "effect on R-cadherin mediated aggregation", "setting": "[2]", "result": "little effect"}
    ]},
    {"compound": "cyclic CRADC (disulfide 1-5; also: peptides said to be amide-blocked at N-terminus and acetylated at C-terminus (as worded)) [cyclic RAD, control cyclic peptide CRADC]", "values": [
      {"measurement": "effect on N-cadherin mediated aggregation", "setting": "[1]", "result": "little effect"},
      {"measurement": "effect on R-cadherin mediated aggregation", "setting": "[2]", "result": "little effect"}
    ]},
    {"compound": "CC[C@H](C)[C@@H]1NC(=O)[C@@H](NC(C)=O)CSSC[C@@H](C(N)=O)NC(=O)[C@@H]2CCCN2C(=O)[C@H](CC(N)=O)NC1=O", "note": "[cyclic INP, cyclic CINPC] (Ac-CINPC-NH2; disulfide 1-5)", "values": [
      {"measurement": "IC50", "setting": "[1]", "result": "< 300", "unit": "µM"}
    ]}
  ]
}
